US20160297883A1, “G-PROTEIN COUPLED RECEPTOR AGONISTS AND METHODS” (Innovative Targeting Solutions, Inc., priority 2013, published 2016)

Target: T1, GLP1R (Homo sapiens, UniProt P43220, A316G/L260F)
T1 construct: host or cells: HuTARG cells (engineered HEK293), subclone L696 / L696.19
Assay: cAMP-responsive CD19 surface reporter assay in HuTARG-L696 GLP1R reporter cell line (FACS)
Assay type: cell-based
Excerpt: HuTARG™ cells, which are HEK293 cells engineered to be capable of de novo antibody generation, were used to generate the reporter cell line. HuTARG™ cells have been stably transfected with expression cassettes for RAG1 and RAG-2 and Tdt. RAG-1 expression is inducible as the gene has been placed downstream of a Tet inducible promoter. HuTARG™ cells have also been stably transfected with a plasmid containing a LoxP site for subsequent insertion of V(D)J substrates.
HuTARG™ cells were modified to express the GLP1 receptor as well as express a reporter gene that was activated by cAMP. […]
Depleted cells were subsequently expanded and depleted an additional time using the same protocol except using a Miltenyi LD magnetic column. […] Single cell clones confirmed to have minimal CD19 expression in the absence of ligand were evaluated for induction of CD19 in the presence of 10 nM Exendin and the L696 subclone was selected. […]
The peptide-grafted antibody, ITS007-V107, was subsequently cloned and expressed as a single-domain VH-IgG antibody without CH1 or a light chain and it was confirmed that the peptide-grafted heavy chain was functional in this format as well (FIG. 12). […]
ITS007-V125 was cloned into a secretion vector, expressed and purified. […] The next day, binding and the percentage of cells expressing the surface marker were determined by FACS.

T1 sequence (P43220 24-463 L260F/A316G): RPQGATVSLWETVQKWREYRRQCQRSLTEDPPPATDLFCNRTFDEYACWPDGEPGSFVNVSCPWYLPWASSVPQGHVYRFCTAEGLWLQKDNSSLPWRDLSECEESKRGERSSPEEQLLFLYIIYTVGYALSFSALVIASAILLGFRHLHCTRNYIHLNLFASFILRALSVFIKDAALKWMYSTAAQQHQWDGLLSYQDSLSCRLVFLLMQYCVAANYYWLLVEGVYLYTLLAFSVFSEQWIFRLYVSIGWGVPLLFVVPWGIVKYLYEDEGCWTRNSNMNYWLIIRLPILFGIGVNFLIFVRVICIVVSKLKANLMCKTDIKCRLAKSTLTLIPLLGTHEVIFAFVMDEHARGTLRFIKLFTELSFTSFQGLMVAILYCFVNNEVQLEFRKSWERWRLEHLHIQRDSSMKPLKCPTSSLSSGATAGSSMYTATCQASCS

Exendin-4 [reference compound]
induction of CD19 expression (10 nM, 24 hours, L696 cell line): CD19 expression is specifically induced
percentage of cells showing CD19 expression (50 nM, 48 hours incubation with reporter line): approximately 8%
